In patent US20230077205A1:

How the values were obtained:
[1] = molecular target: Protein A, MabSelect Sure (protein A affinity resin ligand); experiment: resin slurry partitioning on MabSelect Sure protein A resin; reference Ab6; Elute: 20 mM NaAcetate, pH 3.5
[2] = molecular target: Protein A, MabSelect Sure (protein A affinity resin ligand); experiment: resin slurry partitioning on MabSelect Sure protein A resin; reference Ab6; Strip: 100 mM acetic acid
[3] = molecular target: Protein A, MabSelect Sure (protein A affinity resin ligand); experiment: resin slurry partitioning on MabSelect Sure protein A resin; reference Ab6; Equil/wash: 10 mM NaPhosphate, pH 6.5
[4] = molecular target: Protein A, MabSelect Sure (protein A affinity resin ligand); experiment: resin slurry partitioning on MabSelect Sure protein A resin; reference Ab6; High salt wash: 10 mM NaPhosphate, pH 6.5, 0.5M NaCl

log α (log Kp PLBL2 - log Kp Ab6) [1] | log α (log Kp PLBL2 - log Kp Ab6) [2] | log α (log Kp PLBL2 - log Kp Ab6) [3] | log α (log Kp PLBL2 - log Kp Ab6) [4] | Substance
-0.3 | – | – | – | PLBL2
– | 0 | -2 | -2 | PLBL2 (enzyme)
